Columns and labels:
B2M locus [1] = assay: B2M repression by HLA immunostaining and flow cytometry in HEK293T cells transfected with LTRP:gRNA plasmids
6.7/6.8 target dsDNA [2] = assay: In vitro cleavage rate (kcleave) of CasX 491 RNPs with gRNA variants on labeled dsDNA target; format: biochemical; conditions: CasX 491 RNP, v1 gRNA, compared with scaffold 174
Method: (§1) Double-stranded DNA (dsDNA) targets were formed by mixing the oligos in a 1:1 ratio in 1× cleavage buffer (20 mM Tris HCl pH 7.5, 150 mM NaCl, 1 mM TCEP, […], 10 mM MgCl2), following by heating to 95° C. for 10 minutes, and then allowing the solution to cool to room temperature. CasX ribonucleoproteins (RNPs) were reconstituted with CasX 491 and the indicated gRNAs at a final concentration of 1 μM with 1.2-fold excess of the indicated gRNA in 1× cleavage buffer. RNPs were allowed to form at 37° C. for 10 minutes.
The effects of various structural and chemical modifications to the gRNA scaffold on the cleavage rate of CasX 491 RNPs were determined. Cleavage reactions were prepared with final RNP concentrations of 200 nM and final target concentrations of 10 nM, and reactions were carried out at 16° C. and initiated by the addition of the labeled target DNA substrate (Table 46). Aliquots of reactions were taken at 0.25, 0.5, 1, 2, 5, and 10 minutes and quenched by adding an equal volume of 95% formamide with 20 mM EDTA. Samples were denatured at 95° C. for 10 minutes and resolved on a 10% urea-PAGE gel. Gels were imaged on a Typhoon™ laser-scanner platform and quantified using ImageQuant™ TL 8.2 image analysis software (Cytiva™). The apparent first-order rate constant of non-target strand cleavage (kcieave-) was determined for each CasX:gRNA combination.

6.7/6.8 target dsDNA [3] = assay: Competent (active) fraction of CasX 491 RNPs formed by each gRNA, equimolar cleavage assay; format: biochemical; conditions: CasX 491 RNP, v1 gRNA, spacer 6.7 or 6.8
Method: as §1
To determine the competent fraction formed by each gRNA, cleavage reactions were prepared with final RNP concentrations of 100 nM and final target concentrations of 100 nM. Reactions were carried out at 37° C. and initiated by the addition of the labeled target substrate (Table 46). Aliquots were taken at 0.5, 1, 2, 5, 10, and 30 minutes and quenched by adding an equal volume of 95% formamide with 25 mM EDTA. Samples were denatured by heating at 95° C. for 10 minutes and resolved on a 10% urea-PAGE gel. Gels were imaged and quantified as above. […] The plateau of each fit was determined and reported as the active fraction for each RNP in Table 49.

PCSK9 locus [4] = assay: Editing (indel rate by NGS) at the PCSK9 locus in HepG2 cells lipofected with CasX 491 mRNA and gRNA; format: cell-based, human; conditions: CasX 491 mRNA, v1 gRNAs spacers 6.7 and 6.8, 28 hours
Method: (§2) Editing at the PCSK9 locus and consequential effects on secreted PCSK9 levels were assessed for conditions using CasX 491 mRNA co-delivered with a PCSK9-targeting gRNA with scaffold variant 174 compared to conditions where a PCSK9-targeting gRNA with scaffold variant 316 was used. 100 ng of in vitro transcribed mRNA coding for CasX 491 with a P2A and mScarlet fluorescent protein was transfected into HepG2 cells with version 1 (v1) of gRNAs 174-6.7, 174-6.8, 316-6.7, and 316-6.8 (see Table 45) using lipofectamine. After a media change, the following were harvested at 28 hours post-transfection: 1) transfected cells were harvested for editing assessment at the PCSK9 locus by NGS (next generation sequencing); and 2) media supernatant was harvested to measure secreted PCSK9 protein levels by ELISA. For editing analysis by NGS, amplicons were amplified from 200 ng of extracted gDNA with a set of primers targeting the PCSK9 locus and processed as described earlier in Example 1. Secreted PCSK9 levels in the media supernatant were also analyzed using a fluorescence resonance energy transfer-based immunoassay from CISBio following the manufacturer's instructions. […]
(§3) V1 through v6 variants of chemically-modified PCSK9-targeting gRNAs (Table 45) were assessed for their effects on editing potency and consequential effects on secreted PCSK9 levels in vitro. […]

PCSK9 locus [5] = assay: Secreted PCSK9 levels in media of HepG2 cells lipofected with CasX 491 mRNA and gRNA; format: cell-based, human; conditions: CasX 491 mRNA, v1 gRNAs spacers 6.7 and 6.8, compared with scaffold 174
Method: as §2, §3

B2M locus [6] = assay: B2M knockout (loss of HLA surface presentation, flow cytometry) in HepG2 cells with CasX 491 mRNA and B2M-targeting gRNA; format: cell-based, human; conditions: LNPs, CasX 491 mRNA, spacer 7.9 v1, each dose, compared with scaffold 174
Method: To compare the editing potency of version 0 (v0) and version 1 (v1) of B2M-targeting gRNAs, ~6E4 HepG2 hepatocytes were seeded per well of a 96-well plate. 24 hours later, seeded cells were co-transfected using lipofectamine with 100 ng of in vitro transcribed mRNA coding for CasX 491 and different doses (1, 5, or 50 ng) of either v0 or v1 of the B2M-targeting gRNA containing scaffold variant 174 and spacer 7.37 (see Table 45).
(§4) ~50,000 HepG2 cells, cultured in DMEM/F-12 media containing 10% FBS and 1% PenStrep, were seeded per well in a 96-well plate. The next day, seeded cells were treated with varying concentrations of LNPs, which were prepared in six 2-fold serial dilutions starting at 250 ng. These LNPs were formulated to encapsulate CasX 491 mRNA and a B2M-targeting gRNA incorporating either scaffold variant 174 or 316 with spacer 7.9 (v1; see Table 45). Media was changed 24 hours after LNP treatment, and cells were cultured for six additional days prior to harvesting for gDNA extraction for editing assessment at the B2M locus by NGS and B2M protein expression analysis via HLA immunostaining, followed by flow cytometry using the Attune NxT flow cytometer. Briefly, for editing assessment, amplicons were amplified from 200 ng of extracted gDNA with primers targeting the human B2M locus and processed as described in Example 1.

human B2M locus = assay: Indel rate by NGS at the human B2M locus in HepG2 cells treated with LNPs (CasX 491 mRNA and gRNA); format: cell-based; conditions: CasX 491 mRNA
Method: as §4

Molecule	B2M repression as second repressor domain in LTRP6 configuration (B2M locus [1]; 4 days post-transfection)	B2M repression (HLA-negative cells) (B2M locus [1]; gRNA scaffold 174 spacer 7.165, LTRP6 = ZIM3 first, named domain second repressor domain, day not stated in text (Tables 16-18, days 4-13))	cleavage rate (6.7/6.8 target dsDNA [2]; spacer 6.7)	cleavage rate (6.7/6.8 target dsDNA [2]; spacer 6.8)	active fraction higher than for scaffold 174 (6.7/6.8 target dsDNA [3])	increase in editing rate at the PCSK9 locus over scaffold 174 (PCSK9 locus [4])	reduction of PCSK9 secretion (PCSK9 locus [5])	editing potency at the B2M locus (loss of HLA surface presentation) (B2M locus [6])	editing potency at the B2M locus (indel rate by NGS) (human B2M locus; spacer 7.9 v1, each dose, compared with scaffold 174)	editing level at the B2M locus compared with scaffold 174 (human B2M locus; spacer 7.9 v1, highest dose of 250 ng)
DOMAIN_26749: repressor domain, Ophiophagus hannah, SEQ ID NO 135 (protein, Ophiophagus hannah) STPVTFEDVVVYFTAAEWVHLTNWQRDFYQAVMMETYELVASVAGDGVPMAEDEEGGVERPVWQYIPRGKRRRKTPQPRAD	highest level of B2M repression at 4 days post-transfection	~ 83.800%								
scaffold 316: chimeric gRNA scaffold: scaffold 235 with extended stem loop of scaffold 174; SEQ ID NO 1746 (nucleic acid, listed as RNA, further chemistry not given here) guide: ACUGGCGCUUCUAUCUGAUUACUCUGAGCGCCAUCACCAGCGACUAUGUCGUAGUGGGUAAAGCUCCCUCUUCGGAGGGAGCAUCAGAG			marginally faster cleavage	nearly twice as quickly	25-30%	~ 10 percentage point	more effective reduction of PCSK9 secretion	higher editing potency at the B2M locus	higher editing potency at the B2M locus	nearly two-fold higher
